Results on two molecules are retold here after paper PMC5342210, “Staphylococcal protein Ecb impairs complement receptor-1 mediated recognition of opsonized bacteria” (PLoS ONE, 2017).

Assay [1] deals with C3b (UniProt P01024). In words: radioligand binding; C3b (5 ug/ml) coated on microtiter wells, blocked with 0.5% BSA; 125I-sCR1 (30,000 cpm) mixed with the unlabelled protein (0-0.33 uM) in 1/2 PBS with 0.1% BSA; 60 min, 37 C; bound radioactivity counted.
Target sequence in this assay (P01024 23-667, chain 1 of 2): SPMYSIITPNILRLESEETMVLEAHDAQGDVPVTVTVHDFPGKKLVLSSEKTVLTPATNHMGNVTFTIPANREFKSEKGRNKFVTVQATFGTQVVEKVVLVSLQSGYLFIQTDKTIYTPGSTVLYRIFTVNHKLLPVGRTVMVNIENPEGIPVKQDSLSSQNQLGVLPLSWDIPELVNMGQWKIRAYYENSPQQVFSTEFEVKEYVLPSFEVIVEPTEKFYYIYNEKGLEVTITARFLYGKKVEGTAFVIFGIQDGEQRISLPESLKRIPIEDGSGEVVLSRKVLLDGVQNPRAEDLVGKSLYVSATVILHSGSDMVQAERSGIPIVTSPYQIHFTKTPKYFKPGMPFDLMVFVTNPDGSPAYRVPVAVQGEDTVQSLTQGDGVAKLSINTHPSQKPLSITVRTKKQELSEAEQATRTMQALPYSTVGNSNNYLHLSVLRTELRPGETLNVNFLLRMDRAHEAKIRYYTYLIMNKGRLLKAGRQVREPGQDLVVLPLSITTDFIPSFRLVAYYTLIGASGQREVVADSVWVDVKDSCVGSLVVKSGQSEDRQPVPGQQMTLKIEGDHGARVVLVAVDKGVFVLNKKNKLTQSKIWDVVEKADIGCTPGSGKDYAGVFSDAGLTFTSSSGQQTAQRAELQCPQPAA
Target sequence in this assay (P01024 749-1663, chain 2 of 2): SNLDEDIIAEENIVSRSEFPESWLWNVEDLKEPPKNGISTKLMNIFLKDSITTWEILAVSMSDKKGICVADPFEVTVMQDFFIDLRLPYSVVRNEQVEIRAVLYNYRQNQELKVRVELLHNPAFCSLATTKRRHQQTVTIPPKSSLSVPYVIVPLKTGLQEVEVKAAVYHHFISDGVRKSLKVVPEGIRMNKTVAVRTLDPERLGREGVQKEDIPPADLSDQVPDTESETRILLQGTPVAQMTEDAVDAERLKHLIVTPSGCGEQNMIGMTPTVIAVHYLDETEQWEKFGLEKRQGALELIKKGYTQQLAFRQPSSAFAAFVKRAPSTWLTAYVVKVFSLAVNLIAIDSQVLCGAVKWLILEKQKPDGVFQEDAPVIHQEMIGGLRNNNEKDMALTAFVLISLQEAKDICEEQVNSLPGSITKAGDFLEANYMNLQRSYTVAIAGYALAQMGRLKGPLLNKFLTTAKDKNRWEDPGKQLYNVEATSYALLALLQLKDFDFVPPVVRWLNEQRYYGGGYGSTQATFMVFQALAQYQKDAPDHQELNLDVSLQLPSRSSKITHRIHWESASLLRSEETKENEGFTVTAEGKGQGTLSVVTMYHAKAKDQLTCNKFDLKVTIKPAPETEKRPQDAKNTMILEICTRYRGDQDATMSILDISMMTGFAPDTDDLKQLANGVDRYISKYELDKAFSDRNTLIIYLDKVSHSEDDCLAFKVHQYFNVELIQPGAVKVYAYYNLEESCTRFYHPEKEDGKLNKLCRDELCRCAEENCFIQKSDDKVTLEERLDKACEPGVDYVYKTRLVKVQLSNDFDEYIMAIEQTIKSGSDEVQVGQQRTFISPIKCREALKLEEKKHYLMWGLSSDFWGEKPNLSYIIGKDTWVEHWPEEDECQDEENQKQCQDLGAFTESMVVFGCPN
Assay [2] concerns the target T1, C3b (UniProt P01024).
T1 construct: complement C3 beta chain, as it stands in C3b; alpha'-chain of C3b, the cut product of the C3 alpha chain (here made with trypsin); the C3b was detected with anti-human C3 and anti-human C3c antibodies; also called solid-phase C3b; source: C3 purified from plasma; C3b prepared from C3 using trypsin
The description is as above. Conditions: both partners purified.
T1 sequence (P01024 23-667, chain 1 of 2): as the sequence (P01024 23-667, chain 1 of 2) above
T1 sequence (P01024 749-1663, chain 2 of 2): as the sequence (P01024 749-1663, chain 2 of 2) above

For the molecule “Extracellular complement binding protein (Ecb) (natural protein)”, the percent inhibition of sCR1 binding to C3b with C3b [1] was determined as 80%.

B1: Factor H (FH) (natural protein)
chain: EDCNELPPRRNTEILTGSWSDQTYPEGTQAIYKCRPGYRSLGNVIMVCRKGEWVALNPLRKCQKRPCGHPGDTPFGTFTLTGGNVFEYGVKAVYTCNEGYQLLGEINYRECDTDGWTNDIPICEVVKCLPVTAPENGKIVSSAMEPDREYHFGQAVRFVCNSGYKIEGDEEMHCSDDGFWSKEKPKCVEISCKSPDVINGSPISQKIIYKENERFQYKCNMGYEYSERGDAVCTESGWRPLPSCEEKSCDNPYIPNGDYSPLRIKHRTGDEITYQCRNGFYPATRGNTAKCTSTGWIPAPRCTLKPCDYPDIKHGGLYHENMRRPYFPVAVGKYYSYYCDEHFETPSGSYWDHIHCTQDGWSPAVPCLRKCYFPYLENGYNQNYGRKFVQGKSIDVACHPGYALPKAQTTVTCMENGWSPTPRCIRVKTCSKSSIDIENGFISESQYTYALKEKAKYQCKLGYVTADGETSGSITCGKDGWSAQPTCIKSCDIPVFMNARTKNDFTWFKLNDTLDYECHDGYESNTGSTTGSIVCGYNGWSDLPICYERECELPKIDVHLVPDRKKDQYKVGEVLKFSCKPGFTIVGPNSVQCYHFGLSPDLPICKEQVQSCGPPPELLNGNVKEKTKEEYGHSEVVEYYCNPRFLMKGPNKIQCVDGEWTTLPVCIVEESTCGDIPELEHGWAQLSSPPYYYGDSVEFNCSESFTMIGHRSITCIHGVWTQLPQCVAIDKLKKCKSSNLIILEEHLKNKKEFDHNSNIRYRCRGKEGWIHTVCINGRWDPEVNCSMAQIQLCPPPPQIPNSHNMTTTLNYRDGEKVSVLCQENYLIQEGEEITCKDGRWQSIPLCVEKIPCSQPPQIEHGTINSSRSSQESYAHGTKLSYTCEGGFRISEENETTCYMGKWSSPPQCEGLPCKSPPEISHGVVAHMSDSYQYGEEVTYKCFEGFGIDGPAIAKCLGEKWSHPPSCIKTDCLSLPSFENAIPMGEKKDVYKAGEQVTYTCATYYKMDGASNVTCINSRWTGRPTCRDTSCVNPPTVQNAYIVSRQMSKYPSGERVRYQCRSPYEMFGDEEVMCLNGNWTEPPQCKDSTGKCGPPPPIDNGDITSFPLSVYAPASSVEYQCQNLYQLEGNKRITCRNGQWSEPPKCLHPCVISREIMENYNIALRWTAKQKLYSRTGESVEFVCKRGYRLSSRSHTLRTTCWDGKLEYPTCAKR
notes: complement factor H, plasma regulator; source: purified from plasma
As to B1, the binding result with C3b [2] is recorded as “binds”.
